The values that follow come from patent publication US9975943B2, “Polypeptides” (AFFIBODY AB, priority 2013, dated 2018).

Data set [1] is described as follows: Pharmacokinetic study in mice. The format is in vivo, mouse. The settings on record: male NMRI mice; i.v. 92 nmol/kg; serum; Z variants as fusions to PP013-Z03638. On the procedure:
Z11947, Z11946 and Z11948 fused to PP013-Z03638 were administered intravenously (i.v.) to male NMRI mice (Charles River, Germany) at a dose of 92 nmol/kg body weight. Sera from groups of three mice were obtained at 0.08, 6, 18, 78, 120, 168 and 240 hours. The concentration of respective Z variant was determined by ELISA.
Half-area 96-well ELISA plates were coated at 4° C. overnight with 50 μl/well of an Z specific goat antibody (produced in-house) diluted to 4 μg/ml in coating buffer (50 mM sodium carbonate, pH 9.6). The antibody solution was poured off and the wells were blocked with 100 μl of PBSC for 1.5 h at RT. The sera were diluted in PBSC plus 1% mouse serum (matrix) from 1:100 to 1:51,200 in a two-fold dilution series in a dilutions plate. […] Bound Z variants were detected with 50 μl/well of rabbit anti-PP013 Ig (produced in-house) diluted to 4 μg/ml in PBSC. […] After 15 minutes of development, the absorbance was measured at 450 nm using a multi-well plate reader (Victor^3). The absorbance values were analyzed using GraphPad Prism 5 to determine the concentrations (cubic-spline curve fit) and area under curve (AUC). […] The resulting curves followed a two compartment model and the terminal half-life was calculated as In2 divided by the slope based on the last three time points.

Another data set addresses human FcRn (Homo sapiens, UniProt P55899). The experiment in a line: Biacore analysis of Z variants fused to PP013-Z03638. The format is binding. Details: made in house; host or cells: human SKOV-3 cells, lentivirally transduced, secreted; purified on immobilized human IgG. The settings on record: pH 6.0; 40, 160 and 640 nM. On the procedure:
Expressed and purified Z variants fused to PP013-Z03638 were assayed against human FcRn at pH 6.0 essentially as described for the kinetic analysis in Example 3. The Z variants and the negative control Z03638-PP013 were injected at 40 nM, 160 nM and 640 nM during 1 minute followed by dissociation for 2.5 minutes and equilibration for 1 minute. Kinetic constants and affinities were determined for the Z variants using the BiaEvaluation software.

human FcRn, sequence (P55899 24-290): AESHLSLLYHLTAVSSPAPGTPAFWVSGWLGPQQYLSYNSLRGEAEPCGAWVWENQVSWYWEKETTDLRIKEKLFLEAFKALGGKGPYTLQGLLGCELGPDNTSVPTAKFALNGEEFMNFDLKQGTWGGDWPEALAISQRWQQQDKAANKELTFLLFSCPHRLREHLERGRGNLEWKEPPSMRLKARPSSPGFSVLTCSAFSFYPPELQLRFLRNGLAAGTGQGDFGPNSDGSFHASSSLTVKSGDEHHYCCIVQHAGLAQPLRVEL
human FcRn, sequence (P61769 21-119 partner): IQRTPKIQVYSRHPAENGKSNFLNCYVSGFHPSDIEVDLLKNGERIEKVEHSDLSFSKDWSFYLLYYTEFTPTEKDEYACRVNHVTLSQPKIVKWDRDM

Take “Z03638-PP013: negative control molecule [Z03638]-GAP(G4S)4TS-[PP013]; Taq polymerase binding Z variant fused to albumin binding polypeptide”: the terminal half-life result in data set [1] is given as “approximately 43 hours”. Also, the “binding to FcRn” value with human FcRn is reported as “negative against FcRn”.
